From PMC9049607

What was measured:
Test in all cases: purified protein
purified protein [1] = substrate: CC(C)=CCC/C(C)=C\C=O; settings: 0.2 mM NADH, 100 mM PBS pH 8.0, 30°C
purified protein [2] = substrate: NC(=O)C1=CN([C@@H]2O[C@H](COP(=O)(O)OP(=O)(O)OC[C@H]3O[C@@H](n4cnc5c(N)ncnc54)[C@H](O)[C@@H]3O)[C@@H](O)[C@H]2O)C=CC1; settings: 5 mM (E/Z)-citral, 100 mM PBS pH 8.0, 30°C, varied: cofactor
purified protein [3] = substrate: CC(C)=CCC/C(C)=C/C=O; settings: 0.2 mM NADH, 100 mM PBS pH 8.0, 30°C

B1: OYE2p (Saccharomyces cerevisiae S288C) (protein)
chain: PFVKDFKPQALGDTNLFKPIKIGNNELLHRAVIPPLTRMRAQHPGNIPNRDWAVEYYAQRAQRPGTLIITEGTFPSPQSGGYDNAPGIWSEEQIKEWTKIFKAIHENKSFAWVQLWVLGWAAFPDTLARDGLRYDSASDNVYMNAEQEEKAKKANNPQHSITKDEIKQYVKEYVQAAKNSIAAGADGVEIHSANGYLLNQFLDPHSNNRTDEYGGSIENRARFTLEVVDAVVDAIGPEKVGLRLSPYGVFNSMSGGAETGIVAQYAYVLGELERRAKAGKRLAFVHLVEPRVTNPFLTEGEGEYNGGSNKFAYSIWKGPIIRAGNFALHPEVVREEVKDPRTLIGYGRFFISNPDLVDRLEKGLPLNKYDRDTFYKMSAEGYIDYPTYEEALKLGWDKN
- Km (purified protein [1]): 310 ± 47 µM
- kcat (purified protein [1]): 0.13 ± 0.008 s⁻¹
- kcat/Km (purified protein [1]): 421 ± 39 M⁻¹ s⁻¹
- Km (purified protein [2]): 14 ± 4 µM
- Km (purified protein [3]): 120 ± 25 µM
- kcat (purified protein [3]): 0.213 ± 0.008 s⁻¹
- kcat/Km (purified protein [3]): 1780 ± 305 M⁻¹ s⁻¹
